Positions count from the first letter of the chain named. In names and notes the source's numbering stands. Several values for one entry are separate records, joined by “and”; a condition that tells them apart may be missing. Identical values can stand only once.
Assays:
[1] = biological target: T1, cynomolgus monkey (cyno) CD22 expressed on the surface of CHO cells (cynomolgus monkey); test: cell-based competitive binding of 125I-labelled against unlabelled antibody on CHO cells, Scatchard analysis; repeated assays
T1 construct: residues 1-19 (signal) should be removed
T1 chain: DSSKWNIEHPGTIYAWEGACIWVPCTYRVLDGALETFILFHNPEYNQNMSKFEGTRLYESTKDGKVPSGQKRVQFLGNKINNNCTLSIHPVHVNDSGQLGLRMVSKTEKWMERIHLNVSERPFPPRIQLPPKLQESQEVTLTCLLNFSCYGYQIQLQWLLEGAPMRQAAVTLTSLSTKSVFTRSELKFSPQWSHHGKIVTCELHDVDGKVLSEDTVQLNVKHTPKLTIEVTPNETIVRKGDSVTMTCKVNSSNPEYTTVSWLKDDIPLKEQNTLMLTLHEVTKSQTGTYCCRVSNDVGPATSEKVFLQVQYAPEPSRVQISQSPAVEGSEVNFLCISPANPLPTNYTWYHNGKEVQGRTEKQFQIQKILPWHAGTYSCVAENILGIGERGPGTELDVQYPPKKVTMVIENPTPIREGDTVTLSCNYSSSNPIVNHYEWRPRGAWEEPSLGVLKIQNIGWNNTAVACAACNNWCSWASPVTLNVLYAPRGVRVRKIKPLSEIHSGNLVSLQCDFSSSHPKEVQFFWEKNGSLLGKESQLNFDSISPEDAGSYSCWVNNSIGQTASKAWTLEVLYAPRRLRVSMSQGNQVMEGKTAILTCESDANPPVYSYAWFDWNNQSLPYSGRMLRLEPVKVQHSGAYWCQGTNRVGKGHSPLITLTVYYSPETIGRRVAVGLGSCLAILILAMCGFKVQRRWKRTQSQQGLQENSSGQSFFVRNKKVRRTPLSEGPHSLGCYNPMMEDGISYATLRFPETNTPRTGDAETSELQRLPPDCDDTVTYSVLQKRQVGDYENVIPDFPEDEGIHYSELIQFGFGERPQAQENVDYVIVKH
Description: (§1) Briefly, CHO cells stably expressing full length human CD22 (SEQ ID NO:27) or cynomolgus monkey (cyno) CD22 (SEQ ID NO:31). […] A cell-based, competitive binding assay was performed using serially diluted, unlabeled anti-CD22 antibody. Antibodies were allowed to bind to the cells for 4 hours at 4° C. Binding affinity, KD, of the antibodies was determined in accordance with standard Scatchard analysis performed utilizing a non-linear curve fitting program (see, for example, Munson et al., Anal Biochem, 107: 220-239, 1980).

[2] = biological target: T2, human CD22-beta-ECD-His tagged soluble antigen (human, UniProt P20273 22-681); test: SPR (BIACORE 3000), antibody coupled to the chip, soluble CD22-beta-ECD-His injected, 25 C
T2 construct: also called soluble CD22 extracellular domain (ECD); Soluble Human CD22
T2 sequence: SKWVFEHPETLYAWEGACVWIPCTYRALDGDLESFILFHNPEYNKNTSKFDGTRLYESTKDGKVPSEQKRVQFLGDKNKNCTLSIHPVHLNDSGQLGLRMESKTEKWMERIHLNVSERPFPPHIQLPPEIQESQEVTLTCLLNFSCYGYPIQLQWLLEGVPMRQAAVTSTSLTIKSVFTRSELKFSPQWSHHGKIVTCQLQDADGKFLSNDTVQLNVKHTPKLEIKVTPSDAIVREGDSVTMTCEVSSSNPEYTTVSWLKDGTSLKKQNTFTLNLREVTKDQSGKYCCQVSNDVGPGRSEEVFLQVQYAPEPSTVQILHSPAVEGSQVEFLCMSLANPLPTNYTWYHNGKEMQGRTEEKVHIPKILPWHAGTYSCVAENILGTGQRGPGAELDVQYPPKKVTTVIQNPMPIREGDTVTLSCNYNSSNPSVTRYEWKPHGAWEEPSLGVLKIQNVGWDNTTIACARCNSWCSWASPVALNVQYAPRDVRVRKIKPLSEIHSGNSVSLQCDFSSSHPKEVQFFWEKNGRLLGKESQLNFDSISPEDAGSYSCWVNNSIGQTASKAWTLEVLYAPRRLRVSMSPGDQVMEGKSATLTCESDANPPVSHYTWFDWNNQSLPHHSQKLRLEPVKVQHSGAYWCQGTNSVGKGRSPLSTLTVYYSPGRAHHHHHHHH
Description: The binding affinity of murine and humanized 10F4 antibody for soluble CD22 extracellular domain (ECD) was determined by surface plasmon resonance measurement using a BIACORE® 3000 system (Biacore, Inc., Piscataway, N.J.). Briefly, carboxymethylated dextran biosensor chips (CMS, Biacore Inc.) were activated with N-ethyl-N′-(3-dimethylaminopropyl)-carbodiimide hydrochloride (EDC) and N-hydroxysuccinimide (NHS) according to the supplier's instructions. These activated chips were coated with anti-CD22 IgG1 antibody 10F4 (murine or humanized) by dilution to 5 μg/ml with 10 mM sodium acetate, pH 4.8, before injection at a flow rate of […] to achieve approximately 500 response units (RU) of coupled antibody. Next, 1M ethanolamine was injected to block unreacted groups. […] Association rates (kₒₙ) and dissociation rates (koff) were calculated using a simple one-to-one Langmuir binding model (BIAevaluation Software version 3.2). The equilibrium dissociation constant (Kd) was calculated as the ratio koff/kₒₙ. Anti-CD22 antibody, RFB4, was used as a control (Chemicon International, Inc., Temecula, Calif., catalog no. CBL147).

[3] = biological target: T1, cynomolgus monkey (cyno) CD22 expressed …; test: cell-based competitive binding of 125I-labelled against unlabelled antibody on CHO cells, 4 h at 4 C, Scatchard analysis
Description: as §1

[4] = biological target: T3, CD22 expressed on the surface of BJAB-lucs cells (human, UniProt P20273 20-847); test: FACS on BJAB-lucs cells; biotinylated goat anti-huFc plus Streptavidin-PE
T3 construct: whole, on cells; also called CD22 expressed on BJAB-lucs cells
T3 sequence (looked up): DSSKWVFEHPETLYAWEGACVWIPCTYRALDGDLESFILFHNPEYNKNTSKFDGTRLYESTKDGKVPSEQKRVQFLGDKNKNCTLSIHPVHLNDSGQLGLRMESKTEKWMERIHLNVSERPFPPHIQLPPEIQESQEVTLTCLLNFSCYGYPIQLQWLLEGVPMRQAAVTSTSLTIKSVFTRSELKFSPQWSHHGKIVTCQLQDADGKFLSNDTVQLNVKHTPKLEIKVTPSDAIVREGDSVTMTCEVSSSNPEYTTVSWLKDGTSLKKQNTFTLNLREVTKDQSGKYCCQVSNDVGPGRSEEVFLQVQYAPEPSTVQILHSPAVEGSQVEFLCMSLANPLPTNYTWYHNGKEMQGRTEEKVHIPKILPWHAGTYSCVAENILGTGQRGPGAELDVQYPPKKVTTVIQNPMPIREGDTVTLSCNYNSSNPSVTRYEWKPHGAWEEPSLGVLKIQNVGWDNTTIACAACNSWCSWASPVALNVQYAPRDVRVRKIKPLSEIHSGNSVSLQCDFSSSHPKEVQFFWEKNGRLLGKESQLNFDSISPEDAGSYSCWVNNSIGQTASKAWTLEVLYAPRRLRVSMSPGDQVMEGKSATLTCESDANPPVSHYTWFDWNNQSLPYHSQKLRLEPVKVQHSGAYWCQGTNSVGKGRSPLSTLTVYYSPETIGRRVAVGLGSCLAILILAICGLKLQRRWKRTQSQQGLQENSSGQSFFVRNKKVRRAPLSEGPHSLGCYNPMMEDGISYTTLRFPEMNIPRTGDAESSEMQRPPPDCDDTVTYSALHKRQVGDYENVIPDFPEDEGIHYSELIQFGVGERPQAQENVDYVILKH
Source text: Anti-CD22 antibody bound to the cell surface was detected using biotinylated goat anti-huFc plus Streptavidin-PE.

B1: humanized 10F4 version 1 antibody (antibody, IgG1, V domains shown)
VH: EVQLVESGGGLVQPGGSLRLSCAASGYEFSRSWMNWVRQAPGKGLEWVGRIYPGDGDTNYSGKFKGRFTISADTSKNTAYLQMNSLRAEDTAVYYCARDGSSWDWYFDVWGQGTLVTVSS
VL: DIQMTQSPSSLSASVGDRVTITCRSSQSIVHSNGNTFLEWYQQKPGKAPKLLIYKVSNRFSGVPSRFSGSGSGTDFTLTISSLQPEDFATYYCFQGSQFPYTFGQGTKVEIKR
notes: only variable domains are tied to v1; also called humanized 10F4v1; hu10F4v1
- Kd [1]: 1.4 nM and 1.8 nM

B2: Chimeric 10F4 (antibody, V domains shown)
VH: QVQLQQSGPELVKPGASVKISCKASGYEFSRSWMNWVKQRPGQGREWIGRIYPGDGDTNYSGKFKGKATLTADKSSSTAYMQLSSLTSVDSAVYFCARDGSSWDWYFDVWGAGTTVTVSS
VL: DILMTQTPLSLPVSLGDQASISCRSSQSIVHSNGNTFLEWYLQKPGQSPKLLIYKVSNRFSGVPDRFSGSGSGTDFTLKISRVEAEDLGVYYCFQGSQFPYTFGGGTKVEIK
notes: also called murine chimeric 10F4
- Kd [2]: 16 nM
- koff [2]: 0.00042 s⁻¹
- kon [2]: 26000 M⁻¹ s⁻¹

B3: humanized 10F4 version 2 antibody (antibody, human IgG1, kappa)
heavy: not shown
light: DIQMTQSPSSLSASVGDRVTITCRSSQSIVHSVGNTFLEWYQQKPGKAPKLLIYKVSNRFSGVPSRFSGSGSGTDFTLTISSLQPEDFATYYCFQGSQFPYTFGQGTKVEIKRTVAAPSVFIFPPSDEQLKSGTASVVCLLNNFYPREAKVQWKVDNALQSGNSQESVTEQDSKDSTYSLSSTLTLSKADYEKHKVYACEVTHQGLSSPVTKSFNRGEC
notes: Differs from hu10F4v1 by N28V (Kabat) in HVR-L1; Mature protein identical to hu10F4v3; also called humanized 10F4v2; hu10F4v2
- Kd [3]: 2.1 nM

B4: thio hu LC(V205C) 10F4v3-MCvcPAB-MMAE (antibody, human IgG1, kappa)
heavy: not shown
light: B3 light with V210C
modifications: MC-val-cit-PAB-MMAE on the engineered Cys at Kabat position 205 (sequential position 210)
notes: Cysteine engineered IgG1 (ThioMab) drug conjugate; also called thio hu LC-10F4v3-MC-val-cit-PAB-MMAE; Thio 10F4v3-LC(V205C)-MCvcPAB-MMAE
- binding result [4]: binds
